Substitutions are numbered along the chain they refer to. Numbers in names are those of the source.
B1: humVHH_S56A (VHH)
VHH: EVQLVESGGGLVQPGGSLRLSCAASGRTFSEYAMGWFRQAPGKEREFVATISWSGGATYYTDSVKGRFTISRDNAKNTVYLQMNSLRPEDTAVYYCAAAGLGTVVSEWDYDYDYWGQGTLVTVSS
notes: also called humVHH72_S56A; VHH72_h1_S56A
B2: humVHH (VHH)
VHH: B1 VHH with A57S
notes: also called humanized VHH72; VHH72_h1
B3: humVHH_S56A (VHH)
VHH: B1 VHH
notes: also called monomeric humanized VHH72 with the S56A substitution

How the values were obtained:
[1] = target: mouse IgG1 Fc-fused SARS-CoV-2 RBD (SARS-CoV-2, UniProt P0DTC2); assay: BLI; conditions: both partners purified
[2] = target: monomeric human Fc-fused SARS-CoV-2_RBD-SD1 (SARS-CoV-2, Wuhan-Hu-1, UniProt P0DTC2); assay: BLI; conditions: both partners purified
[3] = target: SARS-CoV-1 spike (SARS-CoV-1, reference entry; strain not …, UniProt P59594); assay: cell-based or functional assay

Binder | koff [1] [s⁻¹] | fold increase in affinity over humVHH [2] [fold] | neutralization of VSV SARS-CoV-1 spike pseudotype virus, potency against humVHH [3] [fold]
B1 | 0.019 |  | 
B2 | 0.075 |  | 
B3 |  | ~7 | 10

From paper PMC9924070 (Science Translational Medicine, 2021)
